{
  "source": "paper PMC8946809",
  "origin": "cited, not measured here",
  "molecular_target": "His516 (UniProt position 538, FRPNYHGVGTC)",
  "test": "kinetics",
  "settings": "enzyme-substrate complex",
  "data": [
    {"substance": "Glucose oxidase (GOx) (Aspergillus niger)", "values": [
      {"measurement": "pKa", "result": "6.9–7.8"}
    ]}
  ]
}
